Results on six molecules are retold here after PMC7062184, “A lipoprotein lipase–GPI-anchored high-density lipoprotein–binding protein 1 fusion lowers triglycerides in mice: Implications for managing familial chylomicronemia syndrome” (The Journal of Biological Chemistry, 2019).

The chains are these.
B1: Soluble GPIHBP1(21–151)-FLAG-His6-Avi (domain or fragment, human)
chain: QTQQEEEEEDEDHGPDDYDEEDEDEVEEEETNRLPGGRSRVLLRCYTCKSLPRDERCNLTQNCSHGQTCTTLIAHGNTESGLLTTHSTWCTDSCQPITKTVEGTQVTMTCCQSSLCNVPPWQSSRVQDPTG
modifications: biotin on the C-terminal AviTag (BirA) where immobilised or labelled with streptavidin-D2; nonbiotinylated as free competitor in TR-FRET
notes: human GPIHBP1, soluble fragment of residues 21–151; also called GPIHBP1-Avi; hGPIHBP1-Avi; source: HEK293T, transfected, purified (Ni-NTA); also co-expressed with LPL and LMF1 in HEK293T and purified as the complex (Ni-NTA, SEC); not shown: AviTag, C-terminal, kept
B2: Soluble GPIHBP1(21–151), untagged (domain or fragment, human)
chain: B1 chain
notes: human GPIHBP1, soluble fragment of residues 21–151 (part of the extracellular domain); also called untagged GPIHBP1
B3: His6-TEV-LPL (N-terminally His6-tagged human lipoprotein lipase) (enzyme)
chain: ADQRRDFIDIESKFALRTPEDTAEDTCHLIPGVAESVATCHFNHSSKTFMVIHGWTVTGMYESWVPKLVAALYKREPDSNVIVVDWLSRAQEHYPVSAGYTKLVGQDVARFINWMEEEFNYPLDNVHLLGYSLGAHAAGIAGSLTNKKVNRITGLDPAGPNFEYAEAPSRLSPDDADFVDVLHTFTRGSPGRSIGIQKPVGHVDIYPNGGTFQPGCNIGEAIRVIAERGLGDVDQLVKCSHERSIHLFIDSLLNEENPSKAYRCSSKEAFEKGLCLSCRKNRCNNLGYEINKVRAKRSSKMYLKTRSQMPYKVFHYQVKIHFSGTESETHTNQAFEISLYGTVAESENIPFTLPEVSTNKTYSFLIYTEVDIGELLMLKLKWKSDSYFSWSDWWSSPGFAIQKIRVKAGETQKKVIFCSREKVSHLQKGKAPAVFVKCHDKSLNKKSG
notes: human lipoprotein lipase; also called His6-LPL; hLPL; not shown: His6, N-terminal, kept
B4: His6-LPL-HA-FLAG (enzyme, human)
chain: B3 chain
notes: human lipoprotein lipase; Used as the complex with biotinylated hGPIHBP1-Avi in the TR-FRET assay; also called His6-hLPL-HA-FLAG; source: HEK293T, co-transfected with GPIHBP1 and LMF1, complex purified (Ni-NTA, SEC); not shown: His6, N-terminal, kept; HA, C-terminal, kept; FLAG, C-terminal, kept
B5: ANGPTL3(17–460)-FLAG-His6-Avi (natural protein)
chain: SRIDQDNSSFDSLSPEPKSRFAMLDDVKILANGLLQLGHGLKDFVHKTKGQINDIFQKLNIFDQSFYDLSLQTSEIKEEEKELRRTTYKLQVKNEEVKNMSLELNSKLESLLEEKILLQQKVKYLEEQLTNLIQNQPETPEHPEVTSLKTFVEKQDNSIKDLLQTVEDQYKQLNQQHSQIKEIENQLRRTSIQEPTEISLSSKPRAPRTTPFLQLNEIRNVKHDGIPAECTTIYNRGEHTSGMYAIRPSNSQVFHVYCDVISGSPWTLIQHRIDGSQNFNETWENYKYGFGRLDGEFWLGLEKIYSIVKQSNYVLRIELEDWKDNKHYIEYSFYLGNHETNYTLHLVAITGNVPNAIPENKDLVFSTWDHKAKGHFNCPEGYSGGWWWHDECGENNLNGKYNKPRAKSKPERRRGLSWKSQNGRLYSIKSTKMLIHPTDSESFE
B6: ANGPTL4(26–406)-FLAG-His6-Avi (natural protein)
chain: QPGPVQSKSPRFASWDEMNVLAHGLLQLGQGLREHAERTRSQLSALERRLSACGSACQGTEGSTDLPLAPESRVDPEVLHSLQTQLKAQNSRIQQLFHKVAQQQRHLEKQHLRIQHLQSQFGLLDHKHLDHEVAKPARRKRLPEMAQPVDPAHNVSRLHRLPRDCQELFQVGERQSGLFEIQPQGSPPFLVNCKMTSDGGWTVIQRRHDGSVDFNRPWEAYKAGFGDPHGEFWLGLEKVHSITGDRNSRLAVQLRDWDGNAELLQFSVHLGGEDTAYSLQLTAPVAGQLGATTVPPSGLSVPFSTWDQDHDLRRDKNCAKSLSGGWWFGTCSHSNLNGQYFRSIPQQRQKLKKGIFWKTWRGRYYPLQATTMLIQPMAAEAAS

For assay [1], the target named is T1, His6-LPL-HA-FLAG (human).
T1 chain: B3 chain
The assay is described as follows: FRET.

Assay [2] deals with B4. The assay is described as follows: FRET or BRET; TR-FRET; 10 nM His6-hLPL-HA-FLAG/biotinylated hGPIHBP1-Avi complex challenged with 1–1000 nM nonbiotinylated ANGPTL4, ANGPTL3 or GPIHBP1, 1 h room temperature; 20 mM HEPES pH 7.4, 100 mM NaCl, 10% heat-inactivated FBS, 5 mM CaCl2; anti-HA-Tb and streptavidin-D2. The conditions noted are these: both partners purified. A general note: BRET reads energy transfer from a luciferase to a nearby fluorophore.

For assay [3], the target named is B3. The assay can be described thus: SEC; His6-LPL, GPIHBP1 and LMF1 co-transfected 3:1:1 in HEK293T; complex captured from the medium by Ni-affinity, then Superdex 200 in 10 mM Tris pH 7.5, 300 mM NaCl; eluted at ~75 kDa. The conditions noted are these: both partners purified. (In general: Size exclusion chromatography separates by hydrodynamic size, large species first.)

For assay [4], the target named is B1. The assay is described as follows: ELISA; 10 nM LPL/GPIHBP1 complex or fusion, biotinylated at the C-terminal AviTag of GPIHBP1, incubated with ANGPTL4 (12-point 2-fold dilution from 100 nM), then applied to a streptavidin-coated MSD plate; LPL and ANGPTL4 detected with specific antibodies. Particulars: both partners purified. (ELISA stands for enzyme-linked immunosorbent assay.)

The target in assay [5] is B1. The assay is described as follows: FRET or BRET; TR-FRET; 10 nM His6-hLPL-HA-FLAG/biotinylated hGPIHBP1-Avi complex challenged with 1–1000 nM nonbiotinylated ANGPTL4, ANGPTL3 or GPIHBP1, 1 h room temperature; 20 mM HEPES pH 7.4, 100 mM NaCl, 10% heat-inactivated FBS, 5 mM CaCl2; anti-HA-Tb and streptavidin-D2. Particulars: both partners purified.
The target in assay [6] is T2, LPL (untagged human lipoprotein lipase) (human).
T2 chain: B3 chain
The assay is described as follows: cell-based or functional assay.

For assay [7], the target named is B3. The assay is described as follows: cell-based or functional assay.
The target in assay [8] is T1, His6-LPL-HA-FLAG. The assay is described as follows: FRET; dissociation of LPL(HA)-GPIHBP1(Avi) complex (10 nM).
The target of assay [9] is T3, LPL(28–475)-(G4S)4-hGPIHBP1(21–151)-FLAG-His6-Avi (human, biotin on the C-terminal AviTag (BirA) in ELISA and SPR).
T3 chain: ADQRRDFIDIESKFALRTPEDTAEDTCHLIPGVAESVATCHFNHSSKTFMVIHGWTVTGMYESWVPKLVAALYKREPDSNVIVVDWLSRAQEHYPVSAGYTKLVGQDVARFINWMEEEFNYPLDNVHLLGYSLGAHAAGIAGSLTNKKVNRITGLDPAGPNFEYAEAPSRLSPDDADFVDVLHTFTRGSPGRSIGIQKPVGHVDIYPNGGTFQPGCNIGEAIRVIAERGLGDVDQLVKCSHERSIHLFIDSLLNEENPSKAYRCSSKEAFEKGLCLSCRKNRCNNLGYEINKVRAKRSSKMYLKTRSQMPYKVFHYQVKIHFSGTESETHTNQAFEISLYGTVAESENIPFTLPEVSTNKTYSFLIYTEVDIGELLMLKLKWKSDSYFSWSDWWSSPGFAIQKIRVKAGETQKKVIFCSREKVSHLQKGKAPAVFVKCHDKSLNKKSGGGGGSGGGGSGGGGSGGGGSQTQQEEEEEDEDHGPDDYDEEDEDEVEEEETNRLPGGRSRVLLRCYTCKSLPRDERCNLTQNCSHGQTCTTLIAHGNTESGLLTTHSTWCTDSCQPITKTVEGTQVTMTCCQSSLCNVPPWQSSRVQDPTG
The assay is described as follows: cell-based or functional assay.

For assay [10], the target named is T1, His6-LPL-HA-FLAG. The assay can be described thus: FRET; competition: dissociation of LPL(HA)/GPIHBP1(Avi) complex.

B1 registered an IC50 in the assay with His6-LPL-HA-FLAG [1] of 15 nM. Moreover, the binding result with His6-LPL-HA-FLAG [2] is reported as “binds”.
Take B2: in assay [3], the “stoichiometry N” value turned out to be 1.
Regarding B3, the binding result in assay [4] was “binds”.
In the case of B4, in [5], the binding result is recorded as “binds”.
For B5, the “IC50 of ANGPTL3-mediated inactivation of 10 nM LPL alone, hydrolysis of VLDL” value in [6] amounted to 8 nM. Besides, the “IC50 of ANGPTL3-mediated inactivation of 10 nM coexpressed LPL/GPIHBP1 complex, hydrolysis of VLDL” value in assay [7] is 300 nM. Also, in the assay with His6-LPL-HA-FLAG [8], the half-maximal inhibitory concentration (IC50) is 100 nM.
Take B6: in assay [6], the “IC50 of ANGPTL4-mediated inactivation of 10 nM LPL alone, hydrolysis of VLDL” value was determined as 3 nM. Also, the “IC50 of ANGPTL4-mediated inactivation of 10 nM coexpressed LPL/GPIHBP1 complex, hydrolysis of VLDL” value in assay [7] is 19 nM. In addition, in [9], the “IC50 of ANGPTL4-mediated inactivation of 10 nM fusion protein against that of LPL alone, hydrolysis of VLDL” value was 36 fold and the “IC50 of ANGPTL4-mediated inactivation of 10 nM fusion protein against that of the coexpressed LPL/GPIHBP1 complex, hydrolysis of VLDL” value turned out to be 6 fold. Also, in the assay with His6-LPL-HA-FLAG [8], half-maximal inhibition (IC50) required 10 nM. In the assay with His6-LPL-HA-FLAG [10], this molecule came in with a half-inhibitory concentration (IC50) of 18 nM.

Usually IC50 stands for the concentration that inhibits the measured activity by half. Read a high IC50 as a need for much substance. Usually stoichiometry N stands for a count of units in the complex or per binding partner.
